Key:
human C-peptide (human) [1] = test: sandwich immunoassay, one-step; PEP-001 on particles, labeled antibody 9103
human C-peptide (human) [2] = test: sandwich immunoassay, two-step; PEP-001 on particles, labeled antibody 9103
human C-peptide (human) [3] = test: sandwich immunoassay, one-step; PEP-001 on particles, labeled antibody CPT-3F-11
human C-peptide (human) [4] = test: sandwich immunoassay, two-step; PEP-001 on particles, labeled antibody CPT-3F-11
human proinsulin (human) [5] = target: human proinsulin (human) (UniProt P01308); test: sandwich immunoassay, one-step, against C-peptide calibration; proinsulin 50 ng/ml; PEP-001 on particles, labeled antibody 9103
human proinsulin (human) [6] = target: human proinsulin (human) (UniProt P01308); test: sandwich immunoassay, two-step, against C-peptide calibration; proinsulin 50 ng/ml; PEP-001 on particles, labeled antibody 9103
human proinsulin (human) [7] = target: human proinsulin (human) (UniProt P01308); test: sandwich immunoassay, one-step, against C-peptide calibration; proinsulin 200 ng/ml; PEP-001 on particles, labeled antibody 9103
human proinsulin (human) [8] = target: human proinsulin (human) (UniProt P01308); test: sandwich immunoassay, one-step, against C-peptide calibration; proinsulin 400 ng/ml; PEP-001 on particles, labeled antibody 9103
human proinsulin (human) [9] = target: human proinsulin (human) (UniProt P01308); test: sandwich immunoassay, two-step, against C-peptide calibration; proinsulin 200 ng/ml; PEP-001 on particles, labeled antibody 9103
human proinsulin (human) [10] = target: human proinsulin (human) (UniProt P01308); test: sandwich immunoassay, two-step, against C-peptide calibration; proinsulin 400 ng/ml; PEP-001 on particles, labeled antibody 9103
human proinsulin (human) [11] = target: human proinsulin (human) (UniProt P01308); test: sandwich immunoassay, one-step, against C-peptide calibration; proinsulin 50 ng/ml; PEP-001 on particles, labeled antibody CPT-3-F11
human proinsulin (human) [12] = target: human proinsulin (human) (UniProt P01308); test: sandwich immunoassay, two-step, against C-peptide calibration; proinsulin 50 ng/ml; PEP-001 on particles, labeled antibody CPT-3-F11
human proinsulin (human) [13] = target: human proinsulin (human) (UniProt P01308); test: sandwich immunoassay, one-step, against C-peptide calibration; proinsulin 200 ng/ml; PEP-001 on particles, labeled antibody CPT-3-F11
human proinsulin (human) [14] = target: human proinsulin (human) (UniProt P01308); test: sandwich immunoassay, one-step, against C-peptide calibration; proinsulin 400 ng/ml; PEP-001 on particles, labeled antibody CPT-3-F11
human proinsulin (human) [15] = target: human proinsulin (human) (UniProt P01308); test: sandwich immunoassay, two-step, against C-peptide calibration; proinsulin 200 ng/ml; PEP-001 on particles, labeled antibody CPT-3-F11
human proinsulin (human) [16] = target: human proinsulin (human) (UniProt P01308); test: sandwich immunoassay, two-step, against C-peptide calibration; proinsulin 400 ng/ml; PEP-001 on particles, labeled antibody CPT-3-F11
[17] = target: modified C-peptide (human C-peptide having Arg-Arg bound to its N-terminal and Lys-Arg bound to its C-terminal) (human); test: sandwich immunoassay, one-step, against C-peptide calibration; modified C-peptide 5 ng/ml; PEP-001 on particles, labeled antibody 9103
[18] = target: modified C-peptide (human C-peptide having Arg-Arg bound to its N-terminal and Lys-Arg bound to its C-terminal) (human); test: sandwich immunoassay, two-step, against C-peptide calibration; modified C-peptide 5 ng/ml; PEP-001 on particles, labeled antibody 9103
[19] = target: modified C-peptide (human C-peptide having Arg-Arg bound to its N-terminal and Lys-Arg bound to its C-terminal) (human); test: sandwich immunoassay, one-step, against C-peptide calibration; modified C-peptide 5 ng/ml; PEP-001 on particles, labeled antibody CPT-3F-11
[20] = target: modified C-peptide (human C-peptide having Arg-Arg bound to its N-terminal and Lys-Arg bound to its C-terminal) (human); test: sandwich immunoassay, two-step, against C-peptide calibration; modified C-peptide 5 ng/ml; PEP-001 on particles, labeled antibody CPT-3F-11
human C-peptide (human) [21] = test: sandwich immunoassay, one-step; 9103 on particles, labeled antibody 9101
human C-peptide (human) [22] = test: sandwich immunoassay, two-step; 9103 on particles, labeled antibody 9101
human C-peptide (human) [23] = test: sandwich immunoassay, one-step; 9103 on particles, labeled antibody PEP-001
human C-peptide (human) [24] = test: sandwich immunoassay, two-step; 9103 on particles, labeled antibody PEP-001
human proinsulin (human) [25] = target: human proinsulin (human) (UniProt P01308); test: sandwich immunoassay, one-step, against C-peptide calibration; proinsulin 50 ng/ml; 9103 on particles, labeled antibody 9101
human proinsulin (human) [26] = target: human proinsulin (human) (UniProt P01308); test: sandwich immunoassay, two-step, against C-peptide calibration; proinsulin 50 ng/ml; 9103 on particles, labeled antibody 9101
human proinsulin (human) [27] = target: human proinsulin (human) (UniProt P01308); test: sandwich immunoassay, one-step, against C-peptide calibration; proinsulin 200 ng/ml; 9103 on particles, labeled antibody 9101
human proinsulin (human) [28] = target: human proinsulin (human) (UniProt P01308); test: sandwich immunoassay, one-step, against C-peptide calibration; proinsulin 400 ng/ml; 9103 on particles, labeled antibody 9101
human proinsulin (human) [29] = target: human proinsulin (human) (UniProt P01308); test: sandwich immunoassay, two-step, against C-peptide calibration; proinsulin 200 ng/ml; 9103 on particles, labeled antibody 9101
human proinsulin (human) [30] = target: human proinsulin (human) (UniProt P01308); test: sandwich immunoassay, two-step, against C-peptide calibration; proinsulin 400 ng/ml; 9103 on particles, labeled antibody 9101
human proinsulin (human) [31] = target: human proinsulin (human) (UniProt P01308); test: sandwich immunoassay, one-step, against C-peptide calibration; proinsulin 50 ng/ml; 9103 on particles, labeled antibody PEP-001
human proinsulin (human) [32] = target: human proinsulin (human) (UniProt P01308); test: sandwich immunoassay, two-step, against C-peptide calibration; proinsulin 50 ng/ml; 9103 on particles, labeled antibody PEP-001
human proinsulin (human) [33] = target: human proinsulin (human) (UniProt P01308); test: sandwich immunoassay, one-step, against C-peptide calibration; proinsulin 200 ng/ml; 9103 on particles, labeled antibody PEP-001
human proinsulin (human) [34] = target: human proinsulin (human) (UniProt P01308); test: sandwich immunoassay, one-step, against C-peptide calibration; proinsulin 400 ng/ml; 9103 on particles, labeled antibody PEP-001
human proinsulin (human) [35] = target: human proinsulin (human) (UniProt P01308); test: sandwich immunoassay, two-step, against C-peptide calibration; proinsulin 200 ng/ml; 9103 on particles, labeled antibody PEP-001
human proinsulin (human) [36] = target: human proinsulin (human) (UniProt P01308); test: sandwich immunoassay, two-step, against C-peptide calibration; proinsulin 400 ng/ml; 9103 on particles, labeled antibody PEP-001
[37] = target: modified C-peptide (human C-peptide having Arg-Arg bound to its N-terminal and Lys-Arg bound to its C-terminal) (human); test: sandwich immunoassay, one-step, against C-peptide calibration; modified C-peptide 5 ng/ml; 9103 on particles, labeled antibody 9101
[38] = target: modified C-peptide (human C-peptide having Arg-Arg bound to its N-terminal and Lys-Arg bound to its C-terminal) (human); test: sandwich immunoassay, two-step, against C-peptide calibration; modified C-peptide 5 ng/ml; 9103 on particles, labeled antibody 9101
[39] = target: modified C-peptide (human C-peptide having Arg-Arg bound to its N-terminal and Lys-Arg bound to its C-terminal) (human); test: sandwich immunoassay, one-step, against C-peptide calibration; modified C-peptide 5 ng/ml; 9103 on particles, labeled antibody PEP-001
[40] = target: modified C-peptide (human C-peptide having Arg-Arg bound to its N-terminal and Lys-Arg bound to its C-terminal) (human); test: sandwich immunoassay, two-step, against C-peptide calibration; modified C-peptide 5 ng/ml; 9103 on particles, labeled antibody PEP-001

UniProt P01308, sequence (P01308 25-110): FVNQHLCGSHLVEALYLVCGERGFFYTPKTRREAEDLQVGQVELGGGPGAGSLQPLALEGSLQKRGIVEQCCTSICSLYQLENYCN
human C-peptide (human), sequence (peptide, as listed by the source): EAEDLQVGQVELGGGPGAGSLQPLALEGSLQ
modified C-peptide (human C-peptide having Arg-Arg bound to its N-terminal and Lys-Arg bound to its C-terminal) (human), sequence (peptide, as listed by the source): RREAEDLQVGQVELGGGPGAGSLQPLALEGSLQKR

Q: Which results are given for “anti-human C-peptide monoclonal antibody PEP-001 (Dako)”?
A: 2S/N value (human C-peptide (human) [1]): 0.781 ng/mL; 2S/N value (human C-peptide (human) [2]): 0.591 ng/mL; 2S/N value (human C-peptide (human) [3]): 0.191 ng/mL; 2S/N value (human C-peptide (human) [4]): 0.271 ng/mL; Cross-reactivity (%) to Human Proinsulin (human proinsulin (human) [5]): > 120%; Cross-reactivity (%) to Human Proinsulin (human proinsulin (human) [6]): > 120%; Cross-reactivity (%) to Human Proinsulin (human proinsulin (human) [7]): > 30%; Cross-reactivity (%) to Human Proinsulin (human proinsulin (human) [8]): > 15%; Cross-reactivity (%) to Human Proinsulin (human proinsulin (human) [9]): > 30%; Cross-reactivity (%) to Human Proinsulin (human proinsulin (human) [10]): > 15%; Cross-reactivity (%) to Human Proinsulin (human proinsulin (human) [11]): > 120%; Cross-reactivity (%) to Human Proinsulin (human proinsulin (human) [12]): > 120%; Cross-reactivity (%) to Human Proinsulin (human proinsulin (human) [13]): > 30%; Cross-reactivity (%) to Human Proinsulin (human proinsulin (human) [14]): > 15%; Cross-reactivity (%) to Human Proinsulin (human proinsulin (human) [15]): > 30%; Cross-reactivity (%) to Human Proinsulin (human proinsulin (human) [16]): > 15%; Cross-reactivity (%) to Modified C-peptide [17]: 35%; Cross-reactivity (%) to Modified C-peptide [18]: 38.3%; Cross-reactivity (%) to Modified C-peptide [19]: 98.5%; Cross-reactivity (%) to Modified C-peptide [20]: 80%

Q: With “anti-human C-peptide monoclonal antibody 9103 (Medix Biochemica)” as the substance, how does the 2S/N value (human C-peptide (human) [21]) read?
A: 0.117 ng/mL

Q: And the 2S/N value (human C-peptide (human) [22])?
A: 0.167 ng/mL

Q: And the 2S/N value (human C-peptide (human) [23])?
A: 0.009 ng/mL

Q: And the 2S/N value (human C-peptide (human) [24])?
A: 0.018 ng/mL

Q: And the Cross-reactivity (%) to Human Proinsulin (human proinsulin (human) [25])?
A: 3.2%

Q: What about the Cross-reactivity (%) to Human Proinsulin (human proinsulin (human) [26]) of the same substance?
A: 2.3%

Q: What about the Cross-reactivity (%) to Human Proinsulin (human proinsulin (human) [27]) of the same substance?
A: 5.8%

Q: What about the Cross-reactivity (%) to Human Proinsulin (human proinsulin (human) [28]) of the same substance?
A: 6.9%

Q: And the Cross-reactivity (%) to Human Proinsulin (human proinsulin (human) [29])?
A: 4.4%

Q: And the Cross-reactivity (%) to Human Proinsulin (human proinsulin (human) [30])?
A: 6.8%

Q: And the Cross-reactivity (%) to Human Proinsulin (human proinsulin (human) [31])?
A: 58%

Q: And the Cross-reactivity (%) to Human Proinsulin (human proinsulin (human) [32])?
A: 65.2%

Q: What about the Cross-reactivity (%) to Human Proinsulin (human proinsulin (human) [33]) of the same substance?
A: > 30%

Q: What about the Cross-reactivity (%) to Human Proinsulin (human proinsulin (human) [34]) of the same substance?
A: > 15%

Q: What about the Cross-reactivity (%) to Human Proinsulin (human proinsulin (human) [35]) of the same substance?
A: > 30%

Q: What about the Cross-reactivity (%) to Human Proinsulin (human proinsulin (human) [36]) of the same substance?
A: > 15%

Q: What about the Cross-reactivity (%) to Modified C-peptide [37] of the same substance?
A: < 0.5%

Q: And the Cross-reactivity (%) to Modified C-peptide [38]?
A: < 0.5%

Q: And the Cross-reactivity (%) to Modified C-peptide [39]?
A: 58.2%

Q: And the Cross-reactivity (%) to Modified C-peptide [40]?
A: 38.6%
